How the values were obtained:
[1] = Immunogenicity in immunised mice: cytokine ELISA in BMDC/splenocyte co-cultures and humoral response; type: in vivo
Description: (§1) To assess the immunogenicity of the synthetic multi-epitope chimera characterised by SEQ ID NO: 5, inoculations were performed subcutaneously in three groups of mice (n=8/group). The animals of one group, referred to as Seq5, were inoculated with 50 µg of the synthetic chimera characterised by SEQ ID NO: 5 and 25 µg of saponin, as an adjuvant; the animals of another group, saponin control group, were inoculated with 25 µg of saponin; and the PBS control group was inoculated with PBS (buffer in which both the synthetic multi-epitope chimera characterised by SEQ ID NO: 5 and the adjuvant were transported). The inoculation was carried out on the left rear plantar pad on days 60, 45 and 30, with respect to day zero of infection, with a total volume of 50 µl.
The displacement of the immune response in the group immunised with the chimera characterised by SEQ ID NO: 5 correlates with increased leishmanicidal activity in target cells infected with Leishmania.
Use was made of virgin bone marrow-derived dendritic cells (BMDC) stimulated with soluble Leishmania antigen (SLA; produced with the supernatants obtained after having lysed cultures of Leishmania promastigotes obtained after sonication and subsequent centrifugation), grey bars; or stimulated with the chimera characterised by SEQ ID NO: 5, white bars; unstimulated BMDC was used as negative control, indicated as N-E with black bars. The BMDCs were co-cultured with spleen cells, splenocytes, of the animals previously immunised as indicated in example 3. Cytokine production (pg/ml) was quantified using the ELISA technique. The data are presented as the mean ± standard deviation (SD). The hash marks indicate statistically significant differences (#, P < 0.05; ##, P <0.001) between the immunised groups and the two control groups (Saponin and PBS). The asterisk indicates statistically significant differences (*, P < 0.05; **, P < 0.001).

L. infantum = test: Protection against L. infantum in the murine model of visceral leishmaniasis; type: in vivo, mice; conditions: 6 weeks after i.v. infection with 5×10^5 L. infantum promastigotes; versus Saponin and PBS groups
Description: as §1
30 days after the last immunisation carried out as described in example 3, an infection was intravenously performed with 5×10^5 infective L. infantum promastigotes in the 3 groups of animals (which we have named Seq5, Saponin and PBS). 6 weeks after infection, the animals were euthanised and the parasite load in the VL target organs was assessed. The parasite count was carried out by decimal dilutions of spleen and liver macerates, separately, and their subsequent observation under a microscope. […]

[2] = system: BMDCs infected with L. infantum; test: Leishmanicidal activity in L. infantum infected BMDCs co-cultured with splenocytes of immunised animals; type: cell-based, mice; conditions: 24 and 72 hours of postinfection incubation; versus Saponin and PBS control groups
Description: as §1
The leishmanicidal activity of the chimera characterised by SEQ ID NO: 5 (indicated in the figure as Seq5) was assessed in BMDC. Virgin BMDCs infected with L. infantum were co-cultured with splenocytes from animals previously immunised with the chimera characterised by SEQ ID NO: 5 as indicated in example 3, and with splenocytes from animals previously inoculated with the two controls used according to example 5. The parameters of infected cells and number of intracellular amastigotes were determined by optical microscopy. The data are presented as the mean ± SD. […]

[3] = splenocytes of immunised mice co-cultured with BMDC stimulated with the chimera or SLA, ELISA, versus Saponin and PBS controls

B1: … RFQSSAIMALQEITRGCVRRMARRGGVK (peptide)
chain: TAVLEYLTAELLELSRSLKAINAQMSMSHRTMKIVNSYVEGLRFQSSAIMALQEITRGCVRRMARRGGVK
modifications: Multi-epitopic chimera consisting of SEQ ID NO: 1, 2, 3 and 4 from Leishmania infantum
[1]; mice immunised s.c. with 50 µg chimera and 25 µg saponin
  specific humoral response against the synthetic multi-epitope chimera (isotype): redirection of the specific humoral response against the synthetic multi-epitope chimera to the IgG2a isotype
[1]; mice immunised s.c. with 50 µg chimera and 25 µg saponin, versus Saponin and PBS controls
  immune response profile: protective Th1 cell response profile
[1]; [3]
  production of IFN-γ: greater amount
  production of IL-12: greater amount
L. infantum
  parasite load in the liver (H): lower parasite load
  parasite load in the spleen (B): lower parasite load
[2]
  number of intracellular amastigotes detected per cell (No./BMDC): lower number
  percentage of infected target cells (% BMDC): notable reduction

Reference: patent EP4163303A1, “SYNTHETIC MULTI-EPITOPE CHIMERA AS A VACCINE AND TREATMENT FOR LEI[…] MAMMALS” (Universidad Complutense De Madrid, priority 2020, dated 2021)
